The record followed here is PMC6509496, “Crystal structure of the TreS:Pep2 complex, initiating α-glucan synthesis in the GlgE pathway of mycobacteria” (The Journal of Biological Chemistry, 2019).

This series concerns the molecule itself. Description: SEC. A general note: In gel filtration, larger molecules generally elute earlier.

B1: Mycobacterium tuberculosis TreS P511W (enzyme)
chain: MNEAEHSVEHPPVQGSHVEGGVVEHPDAKDFGSAAALPADPTWFKHAVFYEVLVRAFFDASADGSGDLRGLIDRLDYLQWLGIDCIWLPPFYDSPLRDGGYDIRDFYKVLPEFGTVDDFVALVDAAHRRGIRIITDLVMNHTSESHPWFQESRRDPDGPYGDYYVWSDTSERYTDARIIFVDTEESNWSFDPVRRQFYWHRFFSHQPDLNYDNPAVQEAMIDVIRFWLGLGIDGFRLDAVPYLFEREGTNCENLPETHAFLKRVRKVVDDEFPGRVLLAEANQWPGDVVEYFGDPNTGGDECHMAFHFPLMPRIFMAVRRESRFPISEIIAQTPPIPDMAQWGIFLRNHDELTLEMVTDEERDYMYAEYAKDPRMKANVGIRRRLAPLLDNDRNQIELFTALLLSLPGSPVLYYGDEIGMGDVIWLGDRDGVRIPMQWTPDRNAGFSTANPGRLYLPPSQDPVYGYQAVNVEAQRDTSTSLLNFTRTMLAVRRRHPAFAVGAFQELGGSNWSVLAYVRQVAGDDGDTVLCVNNLSRFPQPIELDLQQWTNYTPVELTGHVEFPRIGQVPYLLTLPGHGFYWFQLTTHEVGAPPTCGGERRL
notes: also called Mtb TreS-P511W
For B1, the binding result is “binds”.

B2: Mycobacterium tuberculosis TreS R320E (enzyme)
chain: MNEAEHSVEHPPVQGSHVEGGVVEHPDAKDFGSAAALPADPTWFKHAVFYEVLVRAFFDASADGSGDLRGLIDRLDYLQWLGIDCIWLPPFYDSPLRDGGYDIRDFYKVLPEFGTVDDFVALVDAAHRRGIRIITDLVMNHTSESHPWFQESRRDPDGPYGDYYVWSDTSERYTDARIIFVDTEESNWSFDPVRRQFYWHRFFSHQPDLNYDNPAVQEAMIDVIRFWLGLGIDGFRLDAVPYLFEREGTNCENLPETHAFLKRVRKVVDDEFPGRVLLAEANQWPGDVVEYFGDPNTGGDECHMAFHFPLMPRIFMAVREESRFPISEIIAQTPPIPDMAQWGIFLRNHDELTLEMVTDEERDYMYAEYAKDPRMKANVGIRRRLAPLLDNDRNQIELFTALLLSLPGSPVLYYGDEIGMGDVIWLGDRDGVRIPMQWTPDRNAGFSTANPGRLYLPPSQDPVYGYQAVNVEAQRDTSTSLLNFTRTMLAVRRRHPAFAVGAFQELGGSNPSVLAYVRQVAGDDGDTVLCVNNLSRFPQPIELDLQQWTNYTPVELTGHVEFPRIGQVPYLLTLPGHGFYWFQLTTHEVGAPPTCGGERRL
notes: also called Mtb TreS-R320E
Regarding B2, the binding result is on record as “binds”.
